Experimental findings from patent US7521536B2, “Glutamate transporter associated protein” (The Johns Hopkins University School of Medicine, priority 1999, dated 2009) are described below.

For data set [1], the system named is GTRAP3-18. Nature of the data set: retinoic acid regulation of GTRAP3-18 and EAAC1-mediated glutamate transport in HEK293 cells. Format: cell-based. The text has this: Human GTRAP3-18 (JWA protein) was originally identified as a retinoic acid responsive gene. […] The loss of transport activity is not due to changes in EAAC1 protein level (FIG. 9A) or the cellular membrane localization of EAAC1 protein by retinoic acid as examined by fluorescent microscopy. To confirm that loss of transport activity was specifically due to GTRAP3-18 and not by other factors induced by retinoic acid or direct effects on EAAC1, a truncated EAAC1 cDNA, lacking the last 93 amino acids, was constructed. The truncation corresponded to the region used as bait in yeast two-hybrid screening, and was not able to interact with GTRAP3-18. Nevertheless, after transient expression in HEK293 cells, the truncated EAAC1 transported glutamate. […] Thus, the loss of transport activity by retinoic acid was the result of GTRAP3-18 induction. […] This could reflect lack of natural inhibition of the truncated protein EAAC1 by endogenous GTRAP3-18—results similar to the effects of GTRAP3-18 antisense treatment (FIG. 9E).

Data set [2] concerns the target T1, GST-EAAT4 (Rattus norvegicus, UniProt O35921).
T1 construct: Full-length EAAT4 was subcloned into the EcoR I site of the GST-fusion vector pGEX-6P-1 (Pharmacia); made in house; host or cells: E. coli BL21 (Novagen)
T1 sequence (O35921 1-561): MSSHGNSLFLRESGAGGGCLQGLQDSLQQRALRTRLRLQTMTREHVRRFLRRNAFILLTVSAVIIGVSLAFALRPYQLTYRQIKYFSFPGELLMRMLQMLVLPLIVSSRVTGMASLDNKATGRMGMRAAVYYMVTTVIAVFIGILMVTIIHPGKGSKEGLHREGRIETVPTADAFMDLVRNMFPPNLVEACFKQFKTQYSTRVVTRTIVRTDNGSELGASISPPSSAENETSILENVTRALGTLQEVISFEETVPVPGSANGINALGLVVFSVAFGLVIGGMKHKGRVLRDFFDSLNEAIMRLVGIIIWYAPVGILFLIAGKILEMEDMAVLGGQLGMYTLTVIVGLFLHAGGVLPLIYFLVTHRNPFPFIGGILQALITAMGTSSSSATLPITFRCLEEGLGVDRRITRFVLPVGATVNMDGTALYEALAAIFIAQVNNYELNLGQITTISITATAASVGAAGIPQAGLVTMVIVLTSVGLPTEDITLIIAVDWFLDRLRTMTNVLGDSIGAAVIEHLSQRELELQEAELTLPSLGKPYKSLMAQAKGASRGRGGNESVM
Kind of data set: in vitro binding to GST-EAAT4 fusion protein. The settings on record: myc-tagged protein from HEK 293T lysate; no binding to GST. The protocol:
Fusion proteins and in vitro binding. Full-length EAAT4 was subcloned into the EcoR I site of the GST-fusion vector pGEX-6P-1 (Pharmacia). Synthesis of recombinant proteins in BL21 cells (Novagen) was induced by 0.1 mM isopropyl β-D-thiogalactoside for 2 hrs at 30° C. and purified according to the protocol provided by the manufacturer (Pharmacia). HEK 293T cells were transfected with myc-tagged GTRAP4-41 or GTRAP4-48 and harvested in ice-cold immunoprecipitation (IP) buffer (phosphate buffered saline (pH 7.1), 5 mM EDTA, 1 mM sodium orthovanadate, 0.1 mM phenylmethylsulphonyl fluoride (PMSF), 0.3 μM aprotinin and 1% Triton X-100). The cellular lysate was incubated with GST or GST-EAAT4 immobilized on glutathione-Sepharose-4B, and washed to remove non-specifically bound proteins. Specifically bound proteins were eluted with 2×SDS loading buffer and analyzed by immunoblotting using an anti-c-myc antibody.
GTRAP4-41 and 4-48 Immunoprecipitation with Fusion Proteins. Full-length EAAT4 was subcloned into the EcoR I site of the GST-fusion vector pGEX-6P-1 (Pharmacia). […] Specifically bound proteins were eluted with 3×SDS loading buffer and analyzed by immunoblotting using an anti-c-myc antibody. […]

The test system of data set [3] is EAAT4. Nature of the data set: cerebellar glutamate uptake after intra-cisternal injection of HSV amplicon vectors. The settings on record: 48 hrs after intra-cisternal injection of HSV amplicon vector, vs control HSVlac. Format: in vivo, rat.
The test system of data set [4] is EAAT4. Kind of data set: EAAT4 protein level after cycloheximide treatment, densitometry, HEK-rEAAT4 cells. Format: cell-based, rat. The settings on record: 12 hrs after cycloheximide, GTRAP coexpressed; HEK-rEAAT4 alone 54±0.6%. The procedure:
To examine changes in the cell surface levels of EAAT4, a cell membrane-impermeant biotinylation reagent to label cell surface proteins selectively. Biotinylation of cell surface proteins was performed as described in Duan et al. (Duan, et al., J. Neurosci. 19, 10193-10200 (1999)). SOD1 was used to control for total protein and to determine whether the biotinylation reagent labels proteins in the intracellular compartment. Densitometry was performed using the NIH Image program.
However it is also possible that there is increased expression of the cell's native gene. To address this question cells were treated 48 hrs after transfection with cycloheximide, an inhibitor of protein synthesis. […] In contrast, 81±2% and 74±1.7% of the EAAT4 protein remains after 12 hrs when GTRAP4-41 and GTRAP4-48 are coexpressed, respectively.

The target of data set [5] is T2, EAAT4 (Rattus norvegicus, UniProt O35921).
T2 sequence (O35921 1-561): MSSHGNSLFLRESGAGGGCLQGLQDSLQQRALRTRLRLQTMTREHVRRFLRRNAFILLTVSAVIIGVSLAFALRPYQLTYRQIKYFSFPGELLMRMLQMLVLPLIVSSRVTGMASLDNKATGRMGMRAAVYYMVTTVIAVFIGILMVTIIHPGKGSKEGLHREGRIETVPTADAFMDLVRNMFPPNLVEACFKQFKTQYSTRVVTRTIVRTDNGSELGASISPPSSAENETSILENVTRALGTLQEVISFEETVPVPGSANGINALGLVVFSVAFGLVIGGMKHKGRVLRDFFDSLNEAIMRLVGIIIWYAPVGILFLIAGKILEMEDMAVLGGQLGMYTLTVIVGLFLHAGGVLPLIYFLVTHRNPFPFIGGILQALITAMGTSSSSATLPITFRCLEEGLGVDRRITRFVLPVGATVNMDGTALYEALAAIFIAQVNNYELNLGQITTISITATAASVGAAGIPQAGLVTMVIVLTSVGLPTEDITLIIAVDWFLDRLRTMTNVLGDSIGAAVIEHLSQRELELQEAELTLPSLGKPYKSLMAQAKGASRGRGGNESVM
Nature of the data set: Na+-dependent L-[3H]-glutamate uptake in HEK-rEAAT4 cells transfected with GTRAPs. It counts as cell-based. Set-up: expressed in transfected cells. The procedure: To determine function relationships between GTRAPs and glutamate transporter proteins, sodium-dependent, glutamate transport activity was measured in HEK-rEAAT4 cells transfected with one or more interacting proteins.
To determine the effects of GTRAPs on glutamate transport function, Na+-dependent glutamate transport activity was measured in cells stably transfected with EAAT4, EAAC1, or another glutamate transporter protein and one or more interacter proteins. Stably transfected cells were grown in a monolayer on 6-well plates in MEM supplemented with 10% fetal bovine serum and L-glutamine. Assays were conducted when cells reached ˜80% confluency. The wells were pre-rinsed twice with 2 ml of ice-cold tissue buffer (50 mM Tris, 320 mM sucrose, pH 7.4). The cells were then incubated for 4 min at 37° C. with 1 ml of either sodium-(120 mM NaCl, 25 mM NaHCO3, 5 mM KCl, 2 mM CaCl2, 1 mM KH2PO4, 1 mM MgSO4, 10% glucose and […]) or choline-(120 mM choline Cl, 25 mM Tris-HCl pH 7.4, 5 mM KCl, 2 mM CaCl2, 1 mM KH2PO4, 1 mM MgSO4, 10% glucose and […]) containing buffer labeled with L-[^3H]Glu. Uptake was stopped by rinsing three times with 2 ml of ice-cold wash buffer (50 mM Tris pH 7.5 and 160 mM NaCl). Cells were solubilized in 1 ml of 0.1 N NaOH, and […] of lysate was analyzed for radioactivity in a scintillation counter. Na^+-dependent uptake was defined as the difference in radioactivity accumulated in Na^+-containing buffer and in choline-containing buffer. Protein content was measured and glutamate uptake calculated as nmole glutamate per mg of protein. In some cases, homogenates were examined for EAAT4, GTRAP4-41 and GTRAP 4-48 protein.
In an alternative protocol, HEK-rEAAT4 cells transfected with GTRAP4-41 and GTRAP4-48 were grown in a monolayer on 6-well plates in MEM supplemented with 10% fetal bovine serum and L-glutamine. Assays were conducted about 72 h after transfection using the method of Davis (Davis et al., J Neurosci. 18, 2475-2485 (1998)). […] Glutamate transport was measured by methods described herein.

Data set [6] has as its target T3, Rho (Homo sapiens, UniProt P61586).
T3 construct: made in house; host or cells: bacterial cells
Nature of the data set: guanine nucleotide exchange assay (GTPγS binding to small G proteins). It counts as biochemical. The conditions noted are these: GST-RhoA, GST-Cdc42 and GST-Rac, 10 min at 30° C. The procedure: Guanine nucleotide exchange assay. Small G proteins GST-RhoA, GST-CDC42 and GST-Rac were expressed in bacterial cells and affinity purified to ˜80% purity using a glutathione column. Twenty pmoles of each protein were incubated with 100 pmoles GTPγS for 10 min at 30° C. with varying concentrations of full-length GTRAP4-48 or p115. The binding reactions were filtered through BA-85 nitrocellulose and the amount of GTPγS bound to small G protein was quantitated by scintillation counting of the dried filters. The amount of GTPγS that bound to GST-RhoA, GST-Cdc42 and GST-Rac in the presence of full-length GTRAP4-48 or p115 was measured.
A general note: Binding of GTPγS marks nucleotide exchange on a G protein.

T3 sequence (P61586 whole entry): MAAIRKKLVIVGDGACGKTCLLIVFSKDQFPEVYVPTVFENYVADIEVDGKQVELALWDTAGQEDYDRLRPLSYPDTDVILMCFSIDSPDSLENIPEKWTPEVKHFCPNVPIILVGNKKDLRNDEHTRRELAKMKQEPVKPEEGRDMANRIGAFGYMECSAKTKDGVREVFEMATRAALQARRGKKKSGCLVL

Consider `CC1=C(/C=C/C(C)=C/C=C/C(C)=C/C(=O)O)C(C)(C)CCC1` [Retinoic acid, retinoic acid], for which the non-toxic dose range in data set [1] fell in the range of 1 to 10 µM.
What is called Km is the concentration of substrate that gives half-maximal velocity. Turning to “GTRAP4-41: glutamate transporter 4 associated protein, 2,388 amino acids (SEQ ID NO:2), 87% identity with β-spectrin III”, the “binding to GST-EAAT4 fusion protein” value in data set [2] is “bind”. In data set [3], the cerebellar glutamate uptake result is given as “elevated”. In data set [4], this molecule came in with an EAAT4 protein remaining of 81±2%. Moreover, the Km in data set [5] (GTRAP co-expressed with EAAT4, EAAT4 alone 7 (GTRAP41 experiment) or 10 (GTRAP48 experiment)) stood at 11 µM. Further, in data set [5] (GTRAP co-expressed with EAAT4, EAAT4 alone 222 (GTRAP41 experiment) or 208 (GTRAP48 experiment)), the “Vmax of glutamate uptake” value is 605 pmol/mg/min. Moreover, the “increase in glutamate transport” value in data set [5] (HEK-rEAAT4 cells transfected with the GTRAP, vs vector alone) is “two”.

B1: p115: RhoGEF that selectively activates Rho (protein)
chain: MEDFARGAASPGPSRPGLVPVSIIGAEDEDFENELETNSEEQNSQFQSLEQVKRRPAHLMALLQHVALQFEPGPLLCCLHADMLGSLGPKEAKKAFLDFYHSFLEKTAVLRVPVPPNVAFELDRTRADLISEDVQRRFVQEVVQSQQVAVGRQLEDFRSKRLMGMTPWEQELAQLEAWVGRDRASYEARERHVAERLLMHLEEMQHTISTDEEKSAAVVNAIGLYMRHLGVRTKSGDKKSGRNFFRKKVMGNRRSDEPAKTKKGLSSILDAARWNRGEPQVPDFRHLKAEVDAEKPGATDRKGGVGMPSRDRNIGAPGQDTPGVSLHPLSLDSPDREPGADAPLELGDSSPQGPMSLESLAPPESTDEGAETESPEPGDEGEPGRSGLELEPEEPPGWRELVPPDTLHSLPKSQVKRQEVISELLVTEAAHVRMLRVLHDLFFQPMAECLFFPLEELQNIFPSLDELIEVHSLFLDRLMKRRQESGYLIEEIGDVLLARFDGAEGSWFQKISSRFCSRQSFALEQLKAKQRKDPRFCAFVQEAESRPRCRRLQLKDMIPTEMQRLTKYPLLLQSIGQNTEEPTEREKVELAAECCREILHHVNQAVRDMEDLLRLKDYQRRLDLSHLRQSSDPMLSEFKNLDITKKKLVHEGPLTWRVTKDKAVEVHVLLLDDLLLLLQRQDERLLLKSHSRTLTPTPDGKTMLRPVLRLTSAMTREVATDHKAFYVLFTWDQEAQIYELVAQTVSERKNWCALITETAGSLKVPAPASRPKPRPSPSSTREPLLSSSENGNGGRETSPADARTERILSDLLPFCRPGPEGQLAATALRKVLSLKQLLFPAEEDNGAGPPRDGDGVPGGGPLSPARTQEIQENLLSLEETMKQLEELEEEFCRLRPLLSQLGGNSVPQPGCT
As to B1, in data set [6], the “guanine nucleotide exchange activity” value is listed as “specific guanine nucleotide exchange activity for Rho”.
